According to patent US20060281899A1, “Mutants of biotin binding protein” (priority 2002, published 2006):

Assay: Microparticle analysis, BF523-biotin binding of protein-coated particles before and after 95° C.
Assay type: physicochemical
Description: Before the analysis, 3.22 μm microparticles with COOH-group/0.852 nm2 (Bangs laboratories, Fishers, Ind., USA) were covalently coated with biotin-binding proteins. Microparticles (1*108 pcs) were washed twice with H20 by sequential centrifuging (5000 g; 3 min) and aspiration, and resuspended in 200 μl PB buffer (50 mM NaH2PO4-HCl, pH 3.0). A solution of biotin binding protein (50 μl, 1 mg/ml or 3 mg/ml, 50 mM Na-acetate pH 4.0) was added while vortexing. The suspension was incubated for 1 h (500 rpm; 23° C.). Particles were washed with PB and with MES buffer (50 mM, pH 5.5) and suspended in MES buffer (200 μl). […] After the last wash particles were suspended in 100 μl volume and concentration of particles was determined with Multisizer 3 Coulter Counter (Beckman Coulter, Fullerton, Calif., USA). […]
Microparticles (5*106 pcs) were suspended in 900 μl of assay buffer and aliquoted in […] PCR-tubes (i-v; 180 μl/aliquot). […] The samples were measured with ArcDia TPX PlateReader (ArcDia Ltd.) (Soini, E., Meltola, N. J., Soini, A. E., Soukka, J., Soini, J. T. & Hanninen, P. E. (2000) Biochem. Soc. Trans. 28, 70-74). […]
The fluorescence emission efficiencies of the BF523-biotin conjugate (200 nM) was determined before and after the incubation (30 min) at 95° C. […]

B1: AVR4/5: Recombinant chicken avidin-related protein 4/5 (AVR4 and AVR5 identical in coding sequence) (protein, UniProt P56734 25-150, looked up)
Avidin-related protein 4/5: ARKCSLTGKWTNNLGSIMTIRAVNSRGEFTGTYLTAVADNPGNITLSPLLGIQHKRASQPTFGFTVHWNFSESTTVFTGQCFIDRNGKEVLKTMWLLRSSVNDISYDWKATRVGYNNFTRLCTVEE
Q: What does the source list for B1?
A: original signal after heat treatment of coated particles (30 minutes at 95° C., BF523-biotin added after treatment (iv)): 93%; capacity of coated particles (BF523-biotin binding, no heat treatment (i, iii)): remarkably higher
